Consider 12 substances from PMC4557955.

This data set concerns BPs gp33103 repressor (short, prophage-encoded form) (Mycobacteriophage BPs). As to the kind of experiment: EMSA. To be noted: EMSA: 20 mM Tris pH 7.5, 10 mM EDTA, 25 mM NaCl, 10 mM spermidine, 1 mM DTT, 1 ug calf thymus DNA in 10 ul, room temperature 30 min, 5% native gel ….

For 5-6 intergenic region (O6), the Kd (usually the free concentration of one partner at which half of the binding sites on the other are occupied at equilibrium, for simple one-to-one binding) amounted to 2.75 µM.
Under 26-27 intergenic region (O27) stands 0.9 µM.
Take “33-34 intergenic region wild type (366 bp)”: the Kd stood at 2.61 µM.
With 54-55 intergenic region (O55), the dissociation constant Kd was found to be 2.6 µM.
Under 60-61 intergenic region (O61) stands 3.4 µM; under “CAAACGCAAAAGTTCGGGCGTGGCGCATTTTCCAATAGAC (double strand) [TIR-5]”, 12.5 µM; under “CACACACGACGCTTGCACCGCGACATATGTCGGTTTTGCAGACGTGCAGGTT (double strand) [O6-L]”, 10.5 µM.
The value for “GCATCACGGACGCTGCTATCCGACATATGTCGTGGATGATCGGGATATGGCC (double strand) [O27-R]” was 11 µM.
Under “GCATTTTCCAATAGACCGCATATGTCGCTATGTTGGTGCACA (double strand) [O27-L]” stands 38.5 µM.
The substance “GCATTTTCCAATAGACGACATATGTGCCTATGTTGGTGCACA (double strand) [O61-R]” showed a Kd of 19.5 µM.
The value for “TCCAATAGACGACATATGTCGCT (double strand) [TIR-6]” was 9.5 µM; that for “TCGGACATGGTGAACGCTTGCGACATATGTCGCCAATGTGTGCATCTTTGCA (double strand) [O55-L]” was 8.5 µM.
